Source: the supplement of paper PMC9112550, “Optimization of the antimicrobial peptide Bac7 by deep mutational scanning” (BMC Biology, 2022)

What follows are sequences tested on Escherichia coli TOP10 (assay: shrunken log2 fold change of peptide-encoding DNA abundance (4.5 h post-induction vs induction); higher = less antimicrobial activity (less host growth inhibition)). Settings: time post-induction: 4.5 h; library: site-saturation at positions 5, 18, 19, 20.
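Further: peptides expressed intracellularly from a pBAD plasmid library in pooled LB shake-flask culture, induced with 0.3% L-arabinose, DNA abundance read by NGS, three biological replicates, DESeq2 with apeglm shrinkage.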

Row | Sequence | shrunken log2 fold change
1 | RRIRYRPPRLPRPRPRPCMFPRP | -0.981
2 | RRIRYRPPRLPRPRPRPCMGPRP | -0.198
3 | RRIRYRPPRLPRPRPRPCREPRP | -0.152
4 | RRIRYRPPRLPRPRPRPCSIPRP | -0.0204
5 | RRIRYRPPRLPRPRPRPCSLPRP | 0.0201
6 | RRIRYRPPRLPRPRPRPCVVPRP | -0.0208
7 | RRIRYRPPRLPRPRPRPCWPPRP | 0.0499
8 | RRIRYRPPRLPRPRPRPCYGPRP | -0.211
9 | RRIRYRPPRLPRPRPRPCYLPRP | -0.0778
10 | RRIRYRPPRLPRPRPRPCYQPRP | -0.285
11 | RRIRYRPPRLPRPRPRPCYVPRP | -0.0553
12 | RRIRYRPPRLPRPRPRPDCCPRP | -0.115
13 | RRIRYRPPRLPRPRPRPDCHPRP | -0.0362
14 | RRIRYRPPRLPRPRPRPDCIPRP | -0.501
15 | RRIRYRPPRLPRPRPRPDDWPRP | -0.437
16 | RRIRYRPPRLPRPRPRPDEAPRP | 0.033
17 | RRIRYRPPRLPRPRPRPDFVPRP | -0.205
18 | RRIRYRPPRLPRPRPRPDGFPRP | -0.418
19 | RRIRYRPPRLPRPRPRPDGRPRP | -0.154
20 | RRIRYRPPRLPRPRPRPDGTPRP | 0.0319
21 | RRIRYRPPRLPRPRPRPDHIPRP | 0.0129
22 | RRIRYRPPRLPRPRPRPDIPPRP | -0.119
23 | RRIRYRPPRLPRPRPRPDKCPRP | -0.107
24 | RRIRYRPPRLPRPRPRPDKNPRP | -0.558
25 | RRIRYRPPRLPRPRPRPDKTPRP | 0.0325

Row | Sequence | shrunken log2 fold change
26 | RRIRYRPPRLPRPRPRPDMSPRP | -0.0894
27 | RRIRYRPPRLPRPRPRPDNSPRP | -0.779
28 | RRIRYRPPRLPRPRPRPDNWPRP | -0.38
29 | RRIRYRPPRLPRPRPRPDPFPRP | -0.206
30 | RRIRYRPPRLPRPRPRPDRVPRP | -0.234
31 | RRIRYRPPRLPRPRPRPDSEPRP | -0.0121
32 | RRIRYRPPRLPRPRPRPDTRPRP | -0.153
33 | RRIRYRPPRLPRPRPRPDTSPRP | -0.0824
34 | RRIRYRPPRLPRPRPRPDVKPRP | -0.294
35 | RRIRYRPPRLPRPRPRPDVNPRP | -0.0115
36 | RRIRYRPPRLPRPRPRPDWFPRP | -0.987
37 | RRIRYRPPRLPRPRPRPDWGPRP | -0.0597
38 | RRIRYRPPRLPRPRPRPDWPPRP | -0.0212
39 | RRIRYRPPRLPRPRPRPDYLPRP | -1.57
40 | RRIRYRPPRLPRPRPRPEADPRP | 0.123
41 | RRIRYRPPRLPRPRPRPECAPRP | -0.126
42 | RRIRYRPPRLPRPRPRPECFPRP | -0.288
43 | RRIRYRPPRLPRPRPRPEFGPRP | 0.113
44 | RRIRYRPPRLPRPRPRPEGCPRP | 0.204
45 | RRIRYRPPRLPRPRPRPEHDPRP | 0.0965
46 | RRIRYRPPRLPRPRPRPEKGPRP | -0.00176
47 | RRIRYRPPRLPRPRPRPELHPRP | -0.143
48 | RRIRYRPPRLPRPRPRPELQPRP | 0.0344
49 | RRIRYRPPRLPRPRPRPELWPRP | 0.13
50 | RRIRYRPPRLPRPRPRPEMCPRP | -0.238

Row | Sequence | shrunken log2 fold change
51 | RRIRYRPPRLPRPRPRPEPSPRP | -0.0733
52 | RRIRYRPPRLPRPRPRPEQGPRP | -0.00197
53 | RRIRYRPPRLPRPRPRPEQPPRP | 0.00487
54 | RRIRYRPPRLPRPRPRPESHPRP | -0.226
55 | RRIRYRPPRLPRPRPRPESLPRP | -0.0595
56 | RRIRYRPPRLPRPRPRPETAPRP | 0.00332
57 | RRIRYRPPRLPRPRPRPETFPRP | -0.0918
58 | RRIRYRPPRLPRPRPRPEWDPRP | -0.0176
59 | RRIRYRPPRLPRPRPRPFAGPRP | 4.12
60 | RRIRYRPPRLPRPRPRPFAKPRP | -0.623
61 | RRIRYRPPRLPRPRPRPFAMPRP | -0.844
62 | RRIRYRPPRLPRPRPRPFCMPRP | -0.604
63 | RRIRYRPPRLPRPRPRPFGFPRP | -0.918
64 | RRIRYRPPRLPRPRPRPFGHPRP | -0.15
65 | RRIRYRPPRLPRPRPRPFGTPRP | -0.158
66 | RRIRYRPPRLPRPRPRPFIVPRP | -0.173
67 | RRIRYRPPRLPRPRPRPFKGPRP | 0.00253
68 | RRIRYRPPRLPRPRPRPFMSPRP | -0.348
69 | RRIRYRPPRLPRPRPRPFMYPRP | -1.14
70 | RRIRYRPPRLPRPRPRPFNAPRP | -2.15
71 | RRIRYRPPRLPRPRPRPFNTPRP | -0.468
72 | RRIRYRPPRLPRPRPRPFQLPRP | -0.0518
73 | RRIRYRPPRLPRPRPRPFSDPRP | -0.03
74 | RRIRYRPPRLPRPRPRPFVSPRP | 0.00884
75 | RRIRYRPPRLPRPRPRPGAKPRP | 0.379

Row | Sequence | shrunken log2 fold change
76 | RRIRYRPPRLPRPRPRPGAVPRP | 0.929
77 | RRIRYRPPRLPRPRPRPGCVPRP | -0.202
78 | RRIRYRPPRLPRPRPRPGDVPRP | -0.484
79 | RRIRYRPPRLPRPRPRPGDWPRP | 0.337
80 | RRIRYRPPRLPRPRPRPGFFPRP | -0.205
81 | RRIRYRPPRLPRPRPRPGHHPRP | -0.132
82 | RRIRYRPPRLPRPRPRPGHLPRP | -0.0798
83 | RRIRYRPPRLPRPRPRPGIGPRP | -0.659
84 | RRIRYRPPRLPRPRPRPGKKPRP | -0.00101
85 | RRIRYRPPRLPRPRPRPGKLPRP | -0.0944
86 | RRIRYRPPRLPRPRPRPGPHPRP | -0.115
87 | RRIRYRPPRLPRPRPRPGQFPRP | -0.0455
88 | RRIRYRPPRLPRPRPRPGRIPRP | 0.0959
89 | RRIRYRPPRLPRPRPRPGSQPRP | 0.0113
90 | RRIRYRPPRLPRPRPRPGSTPRP | -0.0367
91 | RRIRYRPPRLPRPRPRPGTFPRP | -0.53
92 | RRIRYRPPRLPRPRPRPGTQPRP | -0.141
93 | RRIRYRPPRLPRPRPRPGWEPRP | -0.143
94 | RRIRYRPPRLPRPRPRPHASPRP | 0.0262
95 | RRIRYRPPRLPRPRPRPHAYPRP | -0.0226
96 | RRIRYRPPRLPRPRPRPHDTPRP | -0.313
97 | RRIRYRPPRLPRPRPRPHEVPRP | -0.0317
98 | RRIRYRPPRLPRPRPRPHFRPRP | -0.444
99 | RRIRYRPPRLPRPRPRPHHNPRP | -1.28
100 | RRIRYRPPRLPRPRPRPHIAPRP | -0.408

Row | Sequence | shrunken log2 fold change
101 | RRIRYRPPRLPRPRPRPHIYPRP | -0.725
102 | RRIRYRPPRLPRPRPRPHKDPRP | -0.428
103 | RRIRYRPPRLPRPRPRPHLDPRP | -0.185
104 | RRIRYRPPRLPRPRPRPHLQPRP | -0.388
105 | RRIRYRPPRLPRPRPRPHMDPRP | -1.85
106 | RRIRYRPPRLPRPRPRPHNYPRP | -0.365
107 | RRIRYRPPRLPRPRPRPHPVPRP | -0.185
108 | RRIRYRPPRLPRPRPRPHQKPRP | -0.248
109 | RRIRYRPPRLPRPRPRPHSAPRP | -0.121
110 | RRIRYRPPRLPRPRPRPHSDPRP | -0.0292
111 | RRIRYRPPRLPRPRPRPHSPPRP | -0.0755
112 | RRIRYRPPRLPRPRPRPHTLPRP | -0.959
113 | RRIRYRPPRLPRPRPRPHTNPRP | -0.661
114 | RRIRYRPPRLPRPRPRPHTWPRP | -0.0877
115 | RRIRYRPPRLPRPRPRPHWMPRP | -0.233
116 | RRIRYRPPRLPRPRPRPHYLPRP | -0.285
117 | RRIRYRPPRLPRPRPRPICEPRP | -0.404
118 | RRIRYRPPRLPRPRPRPICPPRP | -0.471
119 | RRIRYRPPRLPRPRPRPICWPRP | 0.142
120 | RRIRYRPPRLPRPRPRPIFGPRP | -0.281
121 | RRIRYRPPRLPRPRPRPIFSPRP | -1.43
122 | RRIRYRPPRLPRPRPRPIHPPRP | -0.418
123 | RRIRYRPPRLPRPRPRPIHTPRP | -0.379
124 | RRIRYRPPRLPRPRPRPIILPRP | -0.605
125 | RRIRYRPPRLPRPRPRPILAPRP | -0.353

Row | Sequence | shrunken log2 fold change
126 | RRIRYRPPRLPRPRPRPILEPRP | 0.0174
127 | RRIRYRPPRLPRPRPRPILQPRP | 0.049
128 | RRIRYRPPRLPRPRPRPIPSPRP | -0.0334
129 | RRIRYRPPRLPRPRPRPIRQPRP | -0.0123
130 | RRIRYRPPRLPRPRPRPISGPRP | 0.0356
131 | RRIRYRPPRLPRPRPRPIVPPRP | 0.0202
132 | RRIRYRPPRLPRPRPRPIVWPRP | 0.0267
133 | RRIRYRPPRLPRPRPRPIYGPRP | -0.428
134 | RRIRYRPPRLPRPRPRPIYVPRP | -1.88
135 | RRIRYRPPRLPRPRPRPIYYPRP | -0.461
136 | RRIRYRPPRLPRPRPRPKCTPRP | -0.0162
137 | RRIRYRPPRLPRPRPRPKCYPRP | -0.112
138 | RRIRYRPPRLPRPRPRPKDGPRP | -0.613
139 | RRIRYRPPRLPRPRPRPKDRPRP | -0.109
140 | RRIRYRPPRLPRPRPRPKEIPRP | -0.0434
141 | RRIRYRPPRLPRPRPRPKETPRP | -0.00674
142 | RRIRYRPPRLPRPRPRPKIRPRP | 0.0107
143 | RRIRYRPPRLPRPRPRPKKTPRP | -0.0419
144 | RRIRYRPPRLPRPRPRPKLWPRP | 0.64
145 | RRIRYRPPRLPRPRPRPKMEPRP | -0.529
146 | RRIRYRPPRLPRPRPRPKMKPRP | -0.404
147 | RRIRYRPPRLPRPRPRPKNDPRP | -0.737
148 | RRIRYRPPRLPRPRPRPKPAPRP | -0.0511
149 | RRIRYRPPRLPRPRPRPKPGPRP | 0.221
150 | RRIRYRPPRLPRPRPRPKPSPRP | 0.433
